The record followed here is patent publication US20190085093A1 (SEOUL NATIONAL UNIVERSITY R AND DB FOUNDATION, published 2019).

In assay [1] the target is T1, Akt1 (UniProt P31749 1-480).
T1 construct: Endogenous protein detected with an Akt1 antibody (LF-MA0245); also called endogenous Akt1
Description: biotin peptide on streptavidin plate, cell lysate, detection with Akt1 antibody. The text has this: To confirm the binding affinity between Akt1 and Akt1 motif-containing FCHo1 amino acid sequence-derived peptides, biotin was conjugated to peptides to complete the synthetization. The peptides were reacted and attached to on the streptavidin-attached plate. After treating with the cell lysates, the binding affinity of the peptide and Akt1 was confirmed by the Akt1 antibody. The experiment process and its result of confirming in vitro binding affinity of Akt1 according to respective peptides derived from FCHo1 binding sites are illustrated in FIG. 28.

Assay [2] deals with T1, Akt1. Description: immunofluorescence and PLA, A549 cells. How it is done:
A549 cells were placed in 8-well chamber cover glasses or high-precision cover glasses and were fixed with 3% paraformaldehyde for 10 minutes at room temperature, permeabilized with 0.5% Triton® X-100 (Sigma-Aldrich) for 5 min, blocked for 30 minutes. Then, the cells were incubated with primary or secondary antibodies in blocking solution (PBS with 0.1% saponin and 3% BSA). Alexa Fluor 647 conjugated anti-rabbit secondary antibody and an oxygen scavenging system (0.5 mg/ml glucose oxidase, 40 μg/ml catalase, 10% glucose, pH 7.4) were used for stochastic optical reconstruction microscopy (dSTORM) imaging. Before imaging, 30 mM mercaptoethylamine ([…]; Sigma) was added to obtain a final thiol concentration of 10-200 mM. All dSTORM and SIM images were obtained from Carl Zeiss ELYRA PS.1 (super-resolution microscopy), and all CLSM images were obtained from the Carl Zeiss LSM710 (confocal laser scanning microscope).
Immunofluorescence and PLA assays confirmed whether the F-BAR domain binds to Akt1 at the ICB and plasma membrane and FCHo1 and Akt1 interact in the midbody. […] Interaction of FCHo1 and Akt1 in the midbody was confirmed by PLA, and Calmodulin 1 was used as an ICB marker. The results are illustrated in FIG. 17.

Assay [3] addresses T2, FCHo1-C-3×DDK (full-length wild-type FCHo1 with C-terminally fused 3×FLAG tag) (human, UniProt O14526 1-889).
T2 construct: Expressed in A549 cells and pulled down with anti-FLAG gel; also called FCHo1-FLAG; wt FCHo1; not shown: C-terminal 3×DDK (3×FLAG) tag of the pCMV6-C-3×DDK vector
T2 sequence (looked up): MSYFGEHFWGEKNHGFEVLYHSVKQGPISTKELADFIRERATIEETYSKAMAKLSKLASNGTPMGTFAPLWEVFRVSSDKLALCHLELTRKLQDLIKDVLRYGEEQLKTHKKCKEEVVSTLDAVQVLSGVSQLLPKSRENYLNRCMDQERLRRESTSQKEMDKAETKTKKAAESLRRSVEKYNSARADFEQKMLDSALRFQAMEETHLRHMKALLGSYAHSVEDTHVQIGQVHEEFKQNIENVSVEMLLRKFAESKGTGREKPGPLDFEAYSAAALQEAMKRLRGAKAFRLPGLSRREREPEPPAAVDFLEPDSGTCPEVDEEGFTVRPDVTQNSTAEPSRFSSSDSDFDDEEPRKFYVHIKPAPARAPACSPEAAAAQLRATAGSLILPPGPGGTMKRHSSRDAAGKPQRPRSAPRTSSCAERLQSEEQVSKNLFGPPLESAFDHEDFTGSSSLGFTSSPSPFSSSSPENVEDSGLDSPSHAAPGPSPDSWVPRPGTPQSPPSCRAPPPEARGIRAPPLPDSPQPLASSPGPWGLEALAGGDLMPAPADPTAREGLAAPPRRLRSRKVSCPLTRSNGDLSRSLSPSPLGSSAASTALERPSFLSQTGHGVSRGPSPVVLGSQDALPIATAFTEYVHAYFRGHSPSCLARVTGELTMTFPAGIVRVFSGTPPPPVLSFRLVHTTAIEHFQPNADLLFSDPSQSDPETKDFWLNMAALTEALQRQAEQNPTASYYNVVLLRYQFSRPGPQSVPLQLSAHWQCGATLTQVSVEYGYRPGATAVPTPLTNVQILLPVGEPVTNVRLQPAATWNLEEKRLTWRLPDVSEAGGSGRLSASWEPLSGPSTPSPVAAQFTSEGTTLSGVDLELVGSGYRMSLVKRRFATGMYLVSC
Put plainly: co-immunoprecipitation with anti-FLAG antibody.

Ends that are not written are not given here.

T1 sequence (P31749 whole entry): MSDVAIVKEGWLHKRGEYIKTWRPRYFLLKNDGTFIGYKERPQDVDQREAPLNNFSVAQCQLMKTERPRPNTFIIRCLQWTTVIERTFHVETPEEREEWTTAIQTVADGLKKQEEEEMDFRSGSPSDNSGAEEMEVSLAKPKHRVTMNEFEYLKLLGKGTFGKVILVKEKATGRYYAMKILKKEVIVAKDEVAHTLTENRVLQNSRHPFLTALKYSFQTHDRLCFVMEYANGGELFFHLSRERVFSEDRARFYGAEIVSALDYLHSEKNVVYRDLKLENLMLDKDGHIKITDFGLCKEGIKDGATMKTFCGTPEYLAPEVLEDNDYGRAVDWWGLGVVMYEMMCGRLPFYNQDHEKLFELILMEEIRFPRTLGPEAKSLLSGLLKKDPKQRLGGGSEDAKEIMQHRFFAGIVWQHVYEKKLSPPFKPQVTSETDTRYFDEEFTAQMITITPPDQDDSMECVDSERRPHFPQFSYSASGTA

B1: peptide 562-571 of FCHo1 (RRLRSRKVSC), biotin-conjugated (peptide)
peptide: RRLRSRKVSC
modifications: also: biotin conjugated, position not given here
notes: Attached to a streptavidin plate by its biotin
For B1, in the assay with Akt1 [1], the binding result is “binds”.

B2: peptide 560-571 of FCHo1 (PPRRLRSRKVSC), biotin-conjugated (peptide)
peptide: PPRRLRSRKVSC
modifications: also: biotin conjugated, position not given here
notes: as for B1
Take B2: the binding result with Akt1 [1] was “binds”.

B3: C-terminal (CT) fragment of FCHo1 cleaved at R563 (other, human, UniProt O14526 564-889, looked up)
chain: LRSRKVSCPLTRSNGDLSRSLSPSPLGSSAASTALERPSFLSQTGHGVSRGPSPVVLGSQDALPIATAFTEYVHAYFRGHSPSCLARVTGELTMTFPAGIVRVFSGTPPPPVLSFRLVHTTAIEHFQPNADLLFSDPSQSDPETKDFWLNMAALTEALQRQAEQNPTASYYNVVLLRYQFSRPGPQSVPLQLSAHWQCGATLTQVSVEYGYRPGATAVPTPLTNVQILLPVGEPVTNVRLQPAATWNLEEKRLTWRLPDVSEAGGSGRLSASWEPLSGPSTPSPVAAQFTSEGTTLSGVDLELVGSGYRMSLVKRRFATGMYLVSC
notes: Fragment in cells, seen by immunofluorescence and PLA with the α584-804 antibody
Consider B3, for which, in the assay with Akt1 [2], the binding result is “binds”.

B4: CT-fragment (564-889aa) of FCHo1-HA (other, human, UniProt O14526 564-889, looked up)
chain: LRSRKVSCPLTRSNGDLSRSLSPSPLGSSAASTALERPSFLSQTGHGVSRGPSPVVLGSQDALPIATAFTEYVHAYFRGHSPSCLARVTGELTMTFPAGIVRVFSGTPPPPVLSFRLVHTTAIEHFQPNADLLFSDPSQSDPETKDFWLNMAALTEALQRQAEQNPTASYYNVVLLRYQFSRPGPQSVPLQLSAHWQCGATLTQVSVEYGYRPGATAVPTPLTNVQILLPVGEPVTNVRLQPAATWNLEEKRLTWRLPDVSEAGGSGRLSASWEPLSGPSTPSPVAAQFTSEGTTLSGVDLELVGSGYRMSLVKRRFATGMYLVSC
notes: Cleavage product of FCHo1-HA in the cells, seen on the blot of the co-IP; not shown: C-terminal 3×HA tag
On to B4, for which the binding result in assay [3] is “no binding”.
